Data from patent US20260151499A1, “ANTIBODY DERIVATIVE AND USE THEREOF” (TSINGHUA UNIVERSITY, priority 2023, published 2026).
Where “and” joins values, the source holds several entries; their conditions need not be identical. Equal entries are not always repeated. Where two headings read alike, the source gives them in different places.

How the values were obtained:
[1] = biological target: T1, NaV1.7 (Homo sapiens, UniProt Q15858); experiment: Whole-cell patch clamp, HEK293-NaV1.7 cells; type: cell-based
T1 construct: expressed in transfected cells; host or cells: HEK293
T1 sequence (Q15858 whole entry): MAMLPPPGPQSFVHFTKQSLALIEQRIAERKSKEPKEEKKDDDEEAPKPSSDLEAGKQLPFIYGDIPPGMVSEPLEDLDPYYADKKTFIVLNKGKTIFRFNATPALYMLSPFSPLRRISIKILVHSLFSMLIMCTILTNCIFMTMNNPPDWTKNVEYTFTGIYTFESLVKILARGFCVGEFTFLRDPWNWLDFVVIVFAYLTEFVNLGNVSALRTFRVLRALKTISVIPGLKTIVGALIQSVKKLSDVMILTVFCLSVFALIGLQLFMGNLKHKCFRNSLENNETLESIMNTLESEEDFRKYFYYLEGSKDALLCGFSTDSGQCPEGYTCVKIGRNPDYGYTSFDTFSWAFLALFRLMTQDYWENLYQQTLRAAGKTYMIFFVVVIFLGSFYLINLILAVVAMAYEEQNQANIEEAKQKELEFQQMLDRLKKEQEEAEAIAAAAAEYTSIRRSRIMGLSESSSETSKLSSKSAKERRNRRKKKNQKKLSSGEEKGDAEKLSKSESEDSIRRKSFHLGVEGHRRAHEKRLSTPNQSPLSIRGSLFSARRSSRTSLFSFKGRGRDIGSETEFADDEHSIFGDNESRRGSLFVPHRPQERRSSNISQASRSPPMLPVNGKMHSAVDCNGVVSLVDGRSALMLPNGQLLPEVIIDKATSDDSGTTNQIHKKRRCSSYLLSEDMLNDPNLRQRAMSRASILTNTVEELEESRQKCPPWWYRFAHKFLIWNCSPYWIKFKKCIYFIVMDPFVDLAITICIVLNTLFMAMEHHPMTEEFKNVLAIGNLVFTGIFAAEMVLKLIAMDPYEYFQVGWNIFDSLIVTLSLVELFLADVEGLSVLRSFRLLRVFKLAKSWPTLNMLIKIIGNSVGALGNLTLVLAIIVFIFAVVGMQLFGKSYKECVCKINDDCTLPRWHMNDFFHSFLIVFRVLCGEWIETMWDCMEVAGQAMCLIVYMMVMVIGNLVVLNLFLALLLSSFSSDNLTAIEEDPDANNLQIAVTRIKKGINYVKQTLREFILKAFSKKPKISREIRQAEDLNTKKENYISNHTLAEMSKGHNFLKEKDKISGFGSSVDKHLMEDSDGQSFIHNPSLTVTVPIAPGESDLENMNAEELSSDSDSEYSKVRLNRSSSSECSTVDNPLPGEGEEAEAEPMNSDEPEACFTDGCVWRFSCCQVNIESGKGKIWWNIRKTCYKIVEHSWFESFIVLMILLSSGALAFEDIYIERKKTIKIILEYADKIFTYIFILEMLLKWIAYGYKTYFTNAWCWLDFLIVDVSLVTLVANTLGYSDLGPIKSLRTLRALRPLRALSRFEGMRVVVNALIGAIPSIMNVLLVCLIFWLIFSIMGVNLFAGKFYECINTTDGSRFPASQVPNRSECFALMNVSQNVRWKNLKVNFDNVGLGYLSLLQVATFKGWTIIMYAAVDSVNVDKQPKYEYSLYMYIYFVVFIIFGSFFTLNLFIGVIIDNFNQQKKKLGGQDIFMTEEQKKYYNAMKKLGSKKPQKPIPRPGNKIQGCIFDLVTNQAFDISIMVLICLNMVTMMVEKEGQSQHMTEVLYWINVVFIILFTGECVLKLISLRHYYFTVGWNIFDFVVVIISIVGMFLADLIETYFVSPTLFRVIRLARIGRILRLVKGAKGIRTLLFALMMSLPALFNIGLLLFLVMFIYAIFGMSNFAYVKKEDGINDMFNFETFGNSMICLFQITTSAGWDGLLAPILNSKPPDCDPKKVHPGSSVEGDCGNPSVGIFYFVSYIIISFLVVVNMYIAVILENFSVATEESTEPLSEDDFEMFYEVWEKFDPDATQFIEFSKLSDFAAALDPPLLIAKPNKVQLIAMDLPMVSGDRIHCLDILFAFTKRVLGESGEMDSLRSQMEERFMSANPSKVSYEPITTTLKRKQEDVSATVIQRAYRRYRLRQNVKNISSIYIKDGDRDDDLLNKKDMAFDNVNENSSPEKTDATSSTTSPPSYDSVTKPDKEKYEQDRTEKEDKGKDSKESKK

[2] = biological target: T2, CD73 (Homo sapiens, UniProt P21589); experiment: CD73 inhibition, AMP hydrolysis, malachite green phosphate assay; type: biochemical; conditions: for IC50: full-length IgG1 conjugated to BN3, read-out: IC50 ± SD (nM) of Ab-BN3 for inhibition of CD73
T2 construct: His (Chis) (C); made in house; host or cells: 293 cells
T2 sequence (P21589 27-549 limits assumed): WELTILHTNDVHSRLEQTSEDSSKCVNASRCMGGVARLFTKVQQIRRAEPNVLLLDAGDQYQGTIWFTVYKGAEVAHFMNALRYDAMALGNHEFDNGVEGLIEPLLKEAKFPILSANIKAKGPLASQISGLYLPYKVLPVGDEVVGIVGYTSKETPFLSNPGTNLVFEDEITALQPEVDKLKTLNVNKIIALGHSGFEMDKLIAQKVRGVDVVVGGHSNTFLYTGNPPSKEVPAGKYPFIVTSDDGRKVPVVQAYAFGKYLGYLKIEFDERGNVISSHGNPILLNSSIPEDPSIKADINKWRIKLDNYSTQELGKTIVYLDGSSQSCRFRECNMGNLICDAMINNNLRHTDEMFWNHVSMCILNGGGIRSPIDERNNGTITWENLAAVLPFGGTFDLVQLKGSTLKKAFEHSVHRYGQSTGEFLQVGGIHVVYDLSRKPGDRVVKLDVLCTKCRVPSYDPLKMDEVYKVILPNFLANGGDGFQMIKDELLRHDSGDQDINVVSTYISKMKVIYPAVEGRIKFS

[3] = biological target: T3, NaV1.2 (Homo sapiens, UniProt Q99250); experiment: Whole-cell patch clamp, HEK293-NaV1.2 cells; type: cell-based
T3 construct: expressed in transfected cells; host or cells: HEK293
T3 sequence (Q99250 whole entry): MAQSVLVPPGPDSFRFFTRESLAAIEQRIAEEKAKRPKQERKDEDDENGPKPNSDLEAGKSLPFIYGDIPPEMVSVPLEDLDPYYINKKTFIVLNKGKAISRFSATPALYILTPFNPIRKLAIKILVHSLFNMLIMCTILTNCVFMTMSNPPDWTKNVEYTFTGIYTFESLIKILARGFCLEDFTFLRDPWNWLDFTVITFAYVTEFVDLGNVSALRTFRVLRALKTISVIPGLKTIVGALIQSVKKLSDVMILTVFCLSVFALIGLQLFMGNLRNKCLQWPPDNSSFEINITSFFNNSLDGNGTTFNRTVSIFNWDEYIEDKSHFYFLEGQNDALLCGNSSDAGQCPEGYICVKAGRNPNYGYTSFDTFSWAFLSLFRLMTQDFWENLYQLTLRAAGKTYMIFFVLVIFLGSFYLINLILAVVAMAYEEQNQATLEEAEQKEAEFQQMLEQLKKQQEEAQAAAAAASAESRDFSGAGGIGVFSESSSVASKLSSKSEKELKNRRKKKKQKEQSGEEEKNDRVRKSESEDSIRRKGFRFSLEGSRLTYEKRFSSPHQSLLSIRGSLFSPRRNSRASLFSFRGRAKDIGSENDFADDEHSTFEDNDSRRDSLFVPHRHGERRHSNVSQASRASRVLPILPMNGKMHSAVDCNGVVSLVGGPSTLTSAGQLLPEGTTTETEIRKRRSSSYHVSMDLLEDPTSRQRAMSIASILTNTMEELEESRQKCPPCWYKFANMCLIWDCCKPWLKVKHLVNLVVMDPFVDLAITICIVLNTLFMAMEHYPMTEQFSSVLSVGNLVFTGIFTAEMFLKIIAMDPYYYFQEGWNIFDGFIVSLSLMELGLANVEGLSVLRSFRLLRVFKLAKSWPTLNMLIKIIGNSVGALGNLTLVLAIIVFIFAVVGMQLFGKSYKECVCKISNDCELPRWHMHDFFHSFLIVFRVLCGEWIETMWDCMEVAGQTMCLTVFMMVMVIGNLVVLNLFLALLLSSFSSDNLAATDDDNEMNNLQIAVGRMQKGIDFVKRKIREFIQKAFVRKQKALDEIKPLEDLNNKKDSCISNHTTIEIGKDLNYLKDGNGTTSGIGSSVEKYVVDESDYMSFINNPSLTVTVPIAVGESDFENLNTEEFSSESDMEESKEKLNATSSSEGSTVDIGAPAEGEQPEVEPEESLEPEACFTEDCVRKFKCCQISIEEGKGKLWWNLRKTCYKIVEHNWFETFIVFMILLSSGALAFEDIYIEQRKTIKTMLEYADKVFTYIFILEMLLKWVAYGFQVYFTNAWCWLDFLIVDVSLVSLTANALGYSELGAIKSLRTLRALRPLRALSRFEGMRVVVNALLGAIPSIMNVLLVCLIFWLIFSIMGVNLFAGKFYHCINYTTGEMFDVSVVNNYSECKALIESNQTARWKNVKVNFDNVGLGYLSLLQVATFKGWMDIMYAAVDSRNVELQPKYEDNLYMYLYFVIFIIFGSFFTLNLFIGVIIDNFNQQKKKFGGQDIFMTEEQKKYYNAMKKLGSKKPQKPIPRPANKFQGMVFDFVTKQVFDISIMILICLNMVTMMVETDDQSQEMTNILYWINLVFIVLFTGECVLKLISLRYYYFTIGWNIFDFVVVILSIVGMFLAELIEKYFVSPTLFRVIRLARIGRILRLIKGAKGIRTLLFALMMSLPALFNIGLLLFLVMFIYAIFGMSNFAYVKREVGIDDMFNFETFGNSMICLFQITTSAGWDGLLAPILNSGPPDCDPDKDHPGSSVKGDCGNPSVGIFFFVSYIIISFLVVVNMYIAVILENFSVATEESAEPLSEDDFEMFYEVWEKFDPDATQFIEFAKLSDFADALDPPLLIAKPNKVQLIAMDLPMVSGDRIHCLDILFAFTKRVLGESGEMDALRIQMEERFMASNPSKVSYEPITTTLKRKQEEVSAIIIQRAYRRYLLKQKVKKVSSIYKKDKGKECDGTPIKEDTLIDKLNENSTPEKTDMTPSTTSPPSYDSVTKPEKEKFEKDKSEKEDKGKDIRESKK

[4] = non-competitive screening clones, 15 min incubation, read-out: IC50 ± SEM (nM) of Ab-PEG3-ASF in inhibiting NaV1.7
[5] = competitive screening clones, read-out: IC50 ± SEM of NaV1.7-selective Ab-ASF

B1: A4-PEG3-ASF: IgG1 Ab-UAA A4 conjugated with ASF-PEG3-DBCO (conjugate)
VH: EVQLVESGGGLVQPGGSLRLSCAASGFTFSGHWMHWVRQAPGKGLEWVSGISGSGGSTYYADSVKGRFTISADTSKNTAYLQMNSLRAEDTAVYYCARELTMATTTDAFDIWGQGTLVTVSS
VL: DIQMTQSPSSLSASVGDRVTITCQASQDIRNDLNWYQQKPGKAPKSLIYAASRLQSGVPSRFSGSRSGTDFTLTISSLQPEDFATYYCQQXYTTPPTFGQGTKLEI
modifications: non-natural residues
notes: IgG1 Ab-UAA A4 conjugated with ASF-PEG3-DBCO
For B1, the IC50 [1, 4] was 1.22 ± 0.534 nM.

B2: 15C12-PEG3-ASF: Ab-UAA 15C12 conjugated to ASF-PEG3-DBCO (conjugate)
VH: EVQLVESGGGLVQPGGSLRLSCAASGFTFSGHWMHWVRQAPGKGLEWVSAISGSGGSTYYADSVKGRFTISADTSKNTAYLQMNSLRAEDTAVYYCARELTMASTTDAFDFWGQGTLVTVSS
VL: DIQMTQSPSSLSASVGDRVTITCQASQDISNSLNWYQQKPGKAPNLLIYATSNLQSGVPSRFSGSRSGTDFTLTISSLQPEDFATYYCQQXYTTPPTFGQGTKLEI
modifications: not fully specified; non-natural residues
notes: Ab-UAA 15C12 conjugated to ASF-PEG3-DBCO
B2 gave an IC50 [1, 5] of 0.0395 ± 0.00968 nM.

B3: 6D11: CD73 antibody clone, VH SEQ ID NO: 81, VL SEQ ID NO: 91 (antibody, V domains shown)
VH: EVQLVESGGGLVQPGGSLRLSCAASGFTFSGHWMHWVRQAPGKGLEWIGSIYYSGSTYYNPSLKSRVTISADTSKNTAYLQMNSLRAEDTAVYYCARDRGWLQFDYWGQGTLVTVSS
VL: DIQMTQSPSSLSASVGDRVTITCRASQNIGTYLAWYQQKPGKAPKLLIYDASNLETGVPSRFSGSRSGTDFTLTISSLQPEDFATYYCQQXYTTPPTFGQGTKLEI
modifications: VARIANT 91 natural amino acid or unnatural amino acid
With B3 the “inhibitory activity against CD73 (in words)” value [2] was “weak inhibitory trend” and the IC50 [2] was 0.464 nM.

B4: ABN3-2G: CD73 antibody clone, VH SEQ ID NO: 77, VL SEQ ID NO: 87 (antibody, V domains shown)
VH: EVQLVESGGGLVQPGGSLRLSCAASGITFGSYTMSWVRQAPGKGLEWIGTVHYTGKTFYSPSLKSRVTISADTSKNTAYLQMNSLRAEDTAVYYCARGRDFGEPPYVRAFDIWGQGTLVTVSS
VL: DIQMTQSPSSLSASVGDRVTITCQASHDISKYLNWYQQKPGKAPKLLIYDASNLETGVPSRFSGSRSGTDFTLTISSLQPEDFATYYCQQXYTTPPTFGQGTKLEI
modifications: not fully specified; VARIANT 91 natural amino acid or unnatural amino acid
Work on B4 yielded an IC50 [2] of 0.565 nM.

B5: 10A7-Fab-BN3: papain-derived Fab of 10A7 conjugated with BN3, monovalent (conjugate)
VH: EVQLVESGGGLVQPGGSLRLSCAASGFAFSSYSMSWVRQAPGKGLEWIGSIYYSGSTYYNPSLKSRVTISADTSKNTAYLQMNSLRAEDTAVYYCARNSGFETLDYWGQGTLVTVSS
VL: DIQMTQSPSSLSASVGDRVTITCRASQGISRWLAWYQQKPGKAPNLLIYGASTLQSGVPPRFSGSRSGTDFTLTISSLQPEDFATYYCQQXYTTPPTFGQGTKLEI
modifications: non-natural residues
For B5, the “inhibitory activity against CD73 (in words)” value [2] was “retained strong inhibitory activity”.

B6: G3-PEG3-ASF: IgG1 Ab-UAA G3 conjugated with ASF-PEG3-DBCO (conjugate)
VH: EVQLVESGGGLVQPGGSLRLSCAASGFTFSASYMSWVRQAPGKGLEWIGSIYYSGSTYYNPSLKSRVTISADTSKNTAYLQMNSLRAEDTAVYYCARGAPYYEGAFDIWGQGTLVTVSS
VL: DIQMTQSPSSLSASVGDRVTITCRASQYISTYLNWYQQKPGKAPKVLISKTSYLESGVPSRFSGSRSGTDFTLTISSLQPEDFATYYCQQXYTTPPTFGQGTKLEI
modifications: non-natural residues
notes: IgG1 Ab-UAA G3 conjugated with ASF-PEG3-DBCO
B6 was tested, and the “inhibition of NaV1.2 at 500 nM” value ([3]; highest tested concentration of 500 nM) was “approximately 60%”, the “inhibitory activity against NaV1.2 (in words)” value ([3]; tested up to 500 nM) was “only weak inhibitory activity” and the IC50 [1, 4] was 1.88 ± 0.394 nM.

B7: 15F9-PEG3-ASF: Ab-UAA 15F9 conjugated to ASF-PEG3-DBCO (conjugate)
VH: EVQLVESGGGLVQPGGSLRLSCAASGFTFSKFWMHWVRQAPGKGLEWVSSISSSSSYIYYADSVKGRFTISADTSKNTAYLQMNSLRAEDTAVYYCARDPISTGAFDIWGQGTLVTVSS
VL: DIQMTQSPSSLSASVGDRVTITCRASQSISSWLAWYQQKPGKAPKLLIYDASSLESGVPSRFSGSRSGTDFTLTISSLQPEDFATYYCQQXYTTPPTFGQGTKLEI
modifications: non-natural residues
notes: Ab-UAA 15F9 conjugated to ASF-PEG3-DBCO
With B7 the “inhibitory activity against NaV1.7 at 10 nM (in words)” value ([1]; 10 nM Ab-PEG3-ASF) was “essentially no inhibitory activity”.

B8: 15A10-PEG3-ASF: Ab-UAA 15A10 conjugated to ASF-PEG3-DBCO (conjugate)
VH: EVQLVESGGGLVQPGGSLRLSCAASGFPFSGHWMHWVRQAPGKGLEWVSGISGTGATSHYADSVKGRFTISADTSKNTAYLQMNSLRAEDTAVYYCAREVITAASTDAFDLWGQGTLVTVSS
VL: DIQMTQSPSSLSASVGDRVTITCRASQSIGSSLHWYQQKPGKAPTVLIYAASSLQTGVPSRFSGSRSGTDFTLTISSLQPEDFATYYCQQXYTTPPTFGQGTKLEI
modifications: not fully specified; non-natural residues
notes: Ab-UAA 15A10 conjugated to ASF-PEG3-DBCO
B8 gave an IC50 [1, 5] of 0.138 ± 0.0414 nM.

B9: 10A7: CD73 antibody clone, VH SEQ ID NO: 73, VL SEQ ID NO: 83 (antibody, V domains shown)
VH: EVQLVESGGGLVQPGGSLRLSCAASGFAFSSYSMSWVRQAPGKGLEWIGSIYYSGSTYYNPSLKSRVTISADTSKNTAYLQMNSLRAEDTAVYYCARNSGFETLDYWGQGTLVTVSS
VL: DIQMTQSPSSLSASVGDRVTITCRASQGISRWLAWYQQKPGKAPNLLIYGASTLQSGVPPRFSGSRSGTDFTLTISSLQPEDFATYYCQQXYTTPPTFGQGTKLEI
modifications: VARIANT 91 natural amino acid or unnatural amino acid
Work on B9 yielded an IC50 [2] of 0.607 nM.

B10: 15F7-PEG3-ASF: Ab-UAA 15F7 conjugated to ASF-PEG3-DBCO (conjugate)
VH: EVQLVESGGGLVQPGGSLRLSCAASGFTFSGHWMHWVRQAPGKGLEWVSAISGSGGSTYYADSVKGRFTISADTSKNTAYLQMNSLRAEDTAVYYCAREVTMVRGVTDAFDIWGQGTLVTVSS
VL: DIQMTQSPSSLSASVGDRVTITCRASQGISSDLGWYQQKPGKAPKLLIYDVSNVQTGVPSRFSGSRSGTDFTLTISSLQPEDFATYYCQQXYTTPPTFGQGTKLEI
modifications: non-natural residues
notes: Ab-UAA 15F7 conjugated to ASF-PEG3-DBCO
For B10, the “inhibition rate of NaV1.7 at 10 nM” value ([1]; 10 nM Ab-PEG3-ASF) was “about 60%” and the IC50 [1, 5] was 6.48 nM and 6.5 nM.

B11: H3-PEG3-ASF: IgG1 Ab-UAA H3 conjugated with ASF-PEG3-DBCO (conjugate)
VH: EVQLVESGGGLVQPGGSLRLSCAASGFTFSDYWISWVRQAPGKGLEWIGNVYYSGNAYYNPSLESRVTISADTSKNTAYLQMNSLRAEDTAVYYCARNTGFETLDNWGQGTLVTVSS
VL: DIQMTQSPSSLSASVGDRVTITCRASQSISSWLAWYQQKPGKAPNLLMYAASSLQSGVPSRFSGSRSGTDFTLTISSLQPEDFATYYCQQXYTTPPTFGQGTKLEI
modifications: non-natural residues
notes: IgG1 Ab-UAA H3 conjugated with ASF-PEG3-DBCO
B11 was tested, and the IC50 [1, 4] was 1.13 ± 0.191 nM.
